Measured values reported in paper PMC8324831, “A synthetic nanobody targeting RBD protects hamsters from SARS-CoV-2 infection” (Nature Communications, 2021).
Numbering of substitutions follows the chain as printed.

B1: LR3 (VHH)
VHH: QVQLVESGGGSVQAGGSLRLSCAASGTINNITYLGWFRQAPGKEREGVAALITTSGYTYYADSVKGRFTVSLDNAKNTVYLQMNSLKPEDTALYYCAAASWGYEWPLVYDDYWYWGQGTQVTVS
B2: MR18 (VHH)
VHH: QVQLVESGGGLVQAGGSLRLSCAASGFPVWEHHMAWYRQAPGKEREWVAAITSKGRYTTYADSVKGRFTISRDNAKNTVYLQMNSLKPEDTAVYYCHVKDAGYFDAQYDYWGQGTQVTVS
B3: SR56 (VHH)
VHH: QVQLVESGGGLVQAGGSLSLSCAASGFPVEHYGMYWYRQAPGKEREWVAAIRSDGQWTHYADSVKGRFTISRDNAKNTVYLQMNSLKPEDTAVYYCTVGVGSNYYGQGTQVTVS
B4: MR2 (VHH)
VHH: QVQLVESGGGLVQAGGSLRLSCAASGFPVYFSYMAWYRQAPGKEREWVAAINSEGDSTTYADSVKGRFTISRDNAKNTVYLQMNSLKPEDTAVYYCNVKDYGWYNSQYDYWGQGTQVTVS
B5: LR2 (VHH)
VHH: QVQLVESGGGSVQAGGSLRLSCAASGDINAIGYLGWFRQAPGKEREGVAALDTDEGQTYYADSVKGRFTVSLDNAKNTVYLQMNSLKPEDTALYYCAAAMNGYNEPLYSYDYEYWGQGTQVTVS
B6: MR11 (VHH)
VHH: QVQLVESGGGLVQAGGSLRLSCAASGFPVEWTSMVWYRQAPGKEREWVAAIYSAGHHTKYADSVKGRFTISRDNAKNTVYLQMNSLKPEDTAVYYCNVKDYGHDRSNYDYWGQGTQVTVS
B7: SR51 (VHH)
VHH: QVQLVESGGGLVQAGGSLRLSCAASGFPVWESYMRWYRQAPGKEREWVAAIQSNGNNTWYADSVKGRFTISRDNAKNTVYLQMNSLKPEDTAVYYCVVYVGYEYHGQGTQVTVS
B8: SR50 (VHH)
VHH: QVQLVESGGGLVQAGGSLRLNCAASGFPVAQAVMAWYRQALGKEREWVAAMHSTGTYTAYADSVKGRFTISRDNAKNTVYLQMNSLKPEDTAVYYCAVHVGFWYAGQGTQVTVS
B9: SR46 (VHH)
VHH: QVQLVESGGGLVQAGGSLRLSCAASGFPVFTENMHWYRQAPGKEREWVAAIYSYGVWTLYADSVKGRFTISRDNAKNTVYLQMNSLKPEDTAVYYCVVQVGEWYEGQGTQVTVS
B10: SR47 (VHH)
VHH: B9 VHH with F30K, N33T, V56T, W57Y, V97E
B11: SR53 (VHH)
VHH: B9 VHH with F30Y, T31S, E32Q, N33H, Y54N, V56T, W57Y, V97E, Q99N
B12: SR58 (VHH)
VHH: B9 VHH with F30K, T31Q, Y54T, V56N, W57F, V97A, E102Q
B13: SR55 (VHH)
VHH: B9 VHH with F30D, E32T, Y54S, V56G, W57F, V97T, Q99W, E102D
B14: SR48 (VHH)
VHH: B9 VHH with F30N, T31Q, E32N, Y54S, V56D, W57F, V97E, E102F, E105T
B15: SR62 (VHH)
VHH: B9 VHH with T31Q, Y54Q, V56S, W57Y, V97E, Q99N, E102Q, E105Y
B16: SR49 (VHH)
VHH: QVQLVESGGGLVQAGGSLRLSCAASGFPVFHAYMAWYRQAPGKEREWVAAIESDGSSTHYADSVKGRFTISRDNAKNTVYLQMNSLKPEDTSVYYCAVLVGFWYAGQGTQVTVS
B17: SR60 (VHH)
VHH: B16 VHH with F30E, Y33Q, E52Q, D54Y, S57T, H59Y, S92A, L99H
B18: SR57 (VHH)
VHH: B16 VHH with F30E, H31Q, Y33E, E52V, D54Y, S56H, H59Y, S92A, L99F
B19: SR61 (VHH)
VHH: B16 VHH with F30D, H31I, Y33E, E52G, D54Q, S56M, S57T, S92A, L99H
B20: SR45 (VHH)
VHH: QVQLVESGGGLVQAGGSLRLSCAASGFPVDNATMAWYRQAPGKEREWVAAIHSIGGYTTYADSVKGRFTISRDNAKNTVYLQMNSLKPEDTAVYYCVGVGKHYYGQGTQVTVS
B21: MR13 (VHH)
VHH: QVQLVESGGGLVQAGGSLRLSCAASGFPVKNMNMHWYRQAPGKEREWVAAIYSYGVETHYADSVKGRFTISRDNAKNTVYLQMNSLKPEDTAVYYCNVKDWGSYMNWYDYWGQGTQVTVS
B22: MR5 (VHH)
VHH: QVQLVESGGGLVQAGGSLRLSCAASGFPVDAWEMAWYRQAPGKEREWVAAIRSFGRRTHYADSVKGRFTISRDNAKNTVYLQMNSLKPEDTAVYYCNVKDFGTHTQEYDYWGQGTQVTVS
B23: MR1 (VHH)
VHH: QVQLVESGGGLVQVGGSLRLSCAASGFPVYHSIMHWYRQAPGKEREWVAAIYSSGAHTYYADSVKGRFTISRDNAKNTVYLQMNSLKPEDTAVYYCNVKDGGNWDHTYDYWGQGTQVTVS
B24: SR59 (VHH)
VHH: QVQLVESGGGLVQAGGSLRLSCAASGFPVKTSRMYWYRQAPGKEREWVAAIISYGSVTFYADSVKGRFTISRDNAKNTVYLQMNSLKPEDTAVYYCYVYVGAQYWGQGTQVTVS
B25: MR7 (VHH)
VHH: QVQLVESGGGLVQAGGSLRLSCAASGFPVNSWMEWYRQAPGKEREWVAAITSYGYKTYYADSVKGRFTISRDNAKNTVYLQMNSLKPEDTAVYYCNVKDEGYFSDEYDYWGQGTQVTVS
B26: MR15 (VHH)
VHH: B25 VHH with N30D, S31T, E100F, F103A, D105T, E106Y
B27: SR52 (VHH)
VHH: QVQLVESGGGLVQAGGSLRLSCAASGFPVNNMEMTWYRQAPGKEREWVAAIASDGSYTEYADSVKGRFTISRDNAKNTVYLQMNSLKPEDTAVYYCYVWVGKSYIGQGTQVTVS
B28: MR8 (VHH)
VHH: QVQLVESGGGLVQAGGSLRLSCAASGFPVEWAHMHWYRQAPGKEREWVAAIVSAGHYTVYADSVKGRFTISRDNAKNTVYLQMNSLKPEDTAVYYCNVKDWGSSNQYYDYWGQGTQVTVS
B29: MR14 (VHH)
VHH: B28 VHH with E30M, W31Y, A32T, A54L, H56E, V59T, S103A, S104A, Q106K
B30: MR12 (VHH)
VHH: B28 VHH with A32S, A54T, H56E, V59K, G102Y, S103G, S104Q, N105A, Q106K, Y107S
B31: SR54 (VHH)
VHH: QVQLVESGGGLVQAGGSLRLSCAASGFPVSQARMHWYRQAPGKEREWVAAIGSSGDFTRYADSVKGRFTISRDNAKNTVYLQMNSLKPEDTAVYYCEVQVGQWYEGQGTQVTVS
B32: MR6 (VHH)
VHH: QVQLVESGGGLVQAGGSLRLSCAASGFPVEDTWMEWYRQAPGKEREWVAAITSWGFKTYYADSVKGRFTISRDNAKNTVYLQMNSLKPEDTAVYYCNVKDEGDTSASYDYWGQGTQVTVS
B33: MR16 (VHH)
VHH: B32 VHH with D31R, W54Y, F56Y, K57R, D103S, T104A, A106S, S107A
B34: MR9 (VHH)
VHH: B32 VHH with E30A, D31S, W54Y, F56Y, K57H, D103Y, T104F, A106T, S107N
B35: MR10 (VHH)
VHH: B32 VHH with E30A, D31N, W54Y, F56Y, K57R, D103A, S105T, A106K, S107V
B36: MR19 (VHH)
VHH: QVQLVESGGGLVQAGGSLRLSCAASGFPVRNTEHMYWYRQAPGKEREWVAAIFSMGRFTKYADSVKGRFTISRDNAKNTVYLQMNSLKPEDTAVYYCNVKDTGSFSEGYDYWGQGTQVTVS

Biological target: SARS-CoV-2 S-RBD with Avi-tag and deca-His tag (residues 330-531) (SARS-CoV-2, UniProt P0DTC2, biotin on the Avi tag (BirA) where immobilised on streptavidin sensors or used in ELISA and FSEC)

Binder	binding result
B1	binds
B2	binds
B3	binds
B4	binds
B5	binds
B6	binds
B7	binds
B8	binds
B9	binds
B10	binds
B11	binds
B12	binds
B13	binds
B14	binds
B15	binds
B16	binds
B17	binds
B18	binds

Binder	binding result
B19	binds
B20	binds
B21	binds
B22	binds
B23	binds
B24	binds
B25	binds
B26	binds
B27	binds
B28	binds
B29	binds
B30	binds
B31	binds
B32	binds
B33	binds
B34	binds
B35	binds
B36	binds
